Results reported in patent US20260241035A1, “FUNCTIONAL NUCLEIC ACID MOLECULE AND METHOD” (THE UNIVERSITY COURT OF THE UNIVERSITY OF EDINBURGH, priority 2022, published 2026).

T1: SOX9 (Homo sapiens, UniProt P48436)
T1 construct: These dsDNA fragments were incubated with nuclear extract from GSC7 and GSC328; endogenous in cells; host or cells: nuclear extract of GSC7 and/or GSC328 (patient-derived glioblastoma stem cell lines)
T1 sequence (P48436 1-509): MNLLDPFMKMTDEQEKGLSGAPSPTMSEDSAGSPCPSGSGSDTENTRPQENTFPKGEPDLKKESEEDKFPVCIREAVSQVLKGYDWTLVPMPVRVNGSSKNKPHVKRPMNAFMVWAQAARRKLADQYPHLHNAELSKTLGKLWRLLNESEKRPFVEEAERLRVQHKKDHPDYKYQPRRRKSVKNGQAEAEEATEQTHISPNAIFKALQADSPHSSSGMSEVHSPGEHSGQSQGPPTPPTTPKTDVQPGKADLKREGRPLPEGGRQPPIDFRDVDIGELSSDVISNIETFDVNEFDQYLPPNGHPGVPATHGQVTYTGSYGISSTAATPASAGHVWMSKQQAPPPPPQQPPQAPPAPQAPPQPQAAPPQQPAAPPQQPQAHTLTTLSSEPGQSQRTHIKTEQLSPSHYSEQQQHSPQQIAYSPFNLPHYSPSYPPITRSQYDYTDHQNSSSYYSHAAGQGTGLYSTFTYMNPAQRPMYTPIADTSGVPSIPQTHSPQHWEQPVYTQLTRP

B1: SSE-1: synthetic super-enhancer ID1101_ID2904_ID0109_ID4328, SEQ ID NO: 64 (nucleic acid)
DNA: GTGAGTGTGACTCACATGCTGGCATCAGAGCCCCTCTTAGAGCTTAGAACACTGGGCCTCTGTCAGGCAAAGAAAAGGAGTCCCTATGAATAGCCATCTCCACAAATAGCAGTTACTGTCACTTCTTAAAAGACACAAGCATGGCTGGAGACCGGCACTGTGCATGTTCTTGGGAAAAAGTGGTATTTAATGAAGGCGCTTTGAGCTGAATCAAAGAGCCTCATTCTTCTGAAAGTCCTTCTTCCTAGTCTCTGCATCCGGCTCCTATCAAAGGAAATCCACAGCTTTGGCTTTTCGTTGCTGTTGTCATGGAAATCGTTGAAATTGGATCCTGAGGAGAATGTCACCACCTCTTTGACAATAACTAGCTTTCAGAGCTGAACACAGTGAATCTGGATACTGTGTATATGTTTAAATGAGTTAGGAAATGACATCACATTATTTATTTCTTCTTTTGTGACTTAGTAAATTGACTTGGCCTACAATCTATTCTCCATAGTCATCAGAGTTTCTTTAAAGGCACGGTTCAGACAATGGCACCCTCTGTTCCAAACCCTCCAGGGCTTCCTATTTCACTTAGCATAAAAACCAAAGTCCTCACAATGACCGACAAGTCTTCACACAATGTGCCCCTTCATTG
B2: SSE-3: synthetic super-enhancer ID0876_ID2339_ID1737_ID0663, SEQ ID NO: 66 (nucleic acid)
DNA: GAGCAGGCAGTCATTTGGTTCCCTTCTCTGAATGCATTGGCTCTGATCCACGGCGCCTCAGGAAGTGAAAGGGAGCAGGCAGTGAGGCCAAGCCATGAATGTTGGGCCCTTTTCTTAGAAAACAAAGGGTTCACTTTAGGCTAGGAGGAAACATCCGGGGGTCGGCGGAACTGAGTCTCCTTTGTGGAGCCCCTCATTTGCATGATAAACCCCGGGGACAAAGTGTGTTCTTGTTACTTGGACTGTTTCTTGGAAACTGCTGCTACCTGGAGCGAGTGAACACAGGGCAAGTATTCTCGCCCACAGCAACGTGTCATTGACAACGTTTTTGGCAGATGCAGCTCTTTCTGAACAGTAAGTCATTGTTGAGTGACATGAATAGGACGAGAGCTACAGAAAATGAAGGTTTCAAAAGATTGTCTAAAACAAAAGTCCTTTCAGTCCCGTATTCAGAGTTATAAATTCCGATTAGCCAAGGAAGCTCTGAGTCTAAATACCAGCAAAGCTCAGCCCCTGCAAGTGGGGACGAATTATTTGAAAGGTCATCCTAGAGACACTGAACAAAGGGCCTCTAGCAGCT
B3: SSE-6: synthetic super-enhancer ID3548_ID3146_ID4310_ID4428, SEQ ID NO: 69 (nucleic acid)
DNA: TCCAAACACTCCCCTGCAACAGATGTACACACAGAGCCCATTGTTTTCTCTAGAAATGTAAACTGCACGTCACAGTTACTCCATACACACCACAAACAGACTCCCTTTGTTCTCAGGATATGTGTTGACACAAGAATATGTCATCCTCTCAGCTCCAGACTGAAAGAGATGGGTGTGTGGGAGTGGGGGAAGCTGAGCTCCAGGCAGACAGCACAGAGCCGCCTTGTCCAACCCAGCCAGGTGCCATGGCAACCAACAAAGGCCCCATTGTCCCGTGTCTGCTGGGCCTTCCTGAGGCTCTGGGGTCAGAGTCCCGGTTTTGTCCTGCCTTTGAGAACACTGGAAGGGCACTGAAGGCTGACCAGCATGCACCTCACCCCACCTCCTCTCTGTCTCATCCTCAGCCATCTAAGCGGGAGACTCATCAGGCTTAAATTCTCATTCTTATCCAAGATTCTTCTGCTTCAAATGAGTCTAAATGGAGATCCTCCCATAAAGGGAGTTCTGTTTGGGCTTCCCTTGGAAGTCCATTGAAAGCGTTTCACATTTCAATGCTTCTTTACATTCTCCTCTAGAATGAATCTGGAAGGGCCATTTCATTCCAGCCCTATCAGATTTACTACTTCCTCCTGT
B4: ID2904: enhancer fragment, SEQ ID NO: 5 (nucleic acid)
DNA: TGCATGTTCTTGGGAAAAAGTGGTATTTAATGAAGGCGCTTTGAGCTGAATCAAAGAGCCTCATTCTTCTGAAAGTCCTTCTTCCTAGTCTCTGCATCCGGCTCCTATCAAAGGAAATCCACAGCTTTGGCTTTTCGTTGCTGTTGTCATGGAAATCGTT
B5: SSE-2: synthetic super-enhancer ID0109_ID4328_ID0876_ID2339, SEQ ID NO: 65 (nucleic acid)
DNA: GAAATTGGATCCTGAGGAGAATGTCACCACCTCTTTGACAATAACTAGCTTTCAGAGCTGAACACAGTGAATCTGGATACTGTGTATATGTTTAAATGAGTTAGGAAATGACATCACATTATTTATTTCTTCTTTTGTGACTTAGTAAATTGACTTGGCCTACAATCTATTCTCCATAGTCATCAGAGTTTCTTTAAAGGCACGGTTCAGACAATGGCACCCTCTGTTCCAAACCCTCCAGGGCTTCCTATTTCACTTAGCATAAAAACCAAAGTCCTCACAATGACCGACAAGTCTTCACACAATGTGCCCCTTCATTGGAGCAGGCAGTCATTTGGTTCCCTTCTCTGAATGCATTGGCTCTGATCCACGGCGCCTCAGGAAGTGAAAGGGAGCAGGCAGTGAGGCCAAGCCATGAATGTTGGGCCCTTTTCTTAGAAAACAAAGGGTTCACTTTAGGCTAGGAGGAAACATCCGGGGGTCGGCGGAACTGAGTCTCCTTTGTGGAGCCCCTCATTTGCATGATAAACCCCGGGGACAAAGTGTGTTCTTGTTACTTGGACTGTTTCTTGGAAACTGCTGCTACCTGGAGCGAGTGAACACAGGGCAAGTATTCTCGCCCACAGCAACGTGTCATTGA
B6: SSE-5: synthetic super-enhancer ID2706_ID3547_ID3548_ID3146, SEQ ID NO: 68 (nucleic acid)
DNA: CCAATGCCAAAGCAGTTTACATTTTACAGATGCCATGGCAACCGTCAGGAAGTTACCCTGTATGGTCTAAGAGGGGGAGGAACCCTCAGTTCCGGGAATTGCCCGCCCCTTTCCCGGAAACTCATGAATAATCCACCCCGTTCCCCCTTAACAAAAGCCACCTCCTCCCTCCTGAAAGGCACCATTGGTCACCAAAACAAGTCCCCTTTGTCCTCCACCGCAGCTGGAGCCTGGGCCTTCCATCTCCTGGGGGCCAATAAAACCCCAGATCAGCCAATCCTCCCTCCCTGGCTCTGTCATCCAAACACTCCCCTGCAACAGATGTACACACAGAGCCCATTGTTTTCTCTAGAAATGTAAACTGCACGTCACAGTTACTCCATACACACCACAAACAGACTCCCTTTGTTCTCAGGATATGTGTTGACACAAGAATATGTCATCCTCTCAGCTCCAGACTGAAAGAGATGGGTGTGTGGGAGTGGGGGAAGCTGAGCTCCAGGCAGACAGCACAGAGCCGCCTTGTCCAACCCAGCCAGGTGCCATGGCAACCAACAAAGGCCCCATTGTCCCGTGTCTGCTGGGCCTTCCTGAGGCTCTGGGGTCAGAGTCCCGGTT

Tests used:
in vitro = assay type: cell-based, human; conditions: human; ganciclovir alone, GSC7; read-out: viability (MTT)
Procedure: (§2) On the day of cell seeding, cells were detached using above described method. Cells were counted using hemocytometer and seeded into either 96-(1,000 cells per well in 50 μL), 24-(30,000 cells per well in 500 μL) or 6-well (60,000 cells per well in 2 mL) Corning plate and placed into incubator at 37° C./5% CO2. The next day, AAV virus stocks were thawed at room temperature and an appropriate amount of virus stock was added to required amount of culture media to achieve final multiplicity of infection (MOI) of 5×10^5. Culture media containing viral particles was added to cells without replacement of existing media. Cells were returned to 37° C./5% CO2.
(§3) Lyophilised GCV was diluted in DMSO to achieve 100 mM stock concentration. GCV stocks were aliquoted and were stored at −20° C. for no longer than 1 month. […]
(§4) To track cell proliferation and morphological changes during treatments, cells were monitored using the Incucyte live-cell imaging system. […]
(§5) On the day of assay culture media was replaced with 0.3 mg/mL MTT solution (diluted in cell line-appropriate culture media). […] Before reading the plate, each well was visually inspected to make sure that all (formazan) crystals were dissolved. Plate was read with plate reader at 560 nm absorbance.

GSC7 cells [1] = experiment: in vitro; assay type: cell-based, human; conditions: ganciclovir alone, no virus
Procedure: as §2, §3, §4, §5

GSC7 cells [2] = experiment: Nano-Glo Dual-Luciferase Reporter (Nanoglo DLR) assay of enhancer activity, fold change to mCMV; assay type: cell-based, human; conditions: for activity compared with CMV, Nanoglo DLR assay: GSC7
Procedure, shortened: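 160 bp enhancer fragments in NanoLuc reporter plasmids were co-transfected 1:10 with PGK-firefly luciferase into GSC7 cells using Lipofectamine LTX/Plus and read two days later. NanoLuc signal was normalised to firefly, then expressed as fold change to the empty mCMV vector.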

GSC7 cells [3] = experiment: Flow cytometry of mNGreen reporter in GSC7; assay type: cell-based, human
Procedure: Cells were seeded at the required density. The following day the transfection was carried out. […] Following this step, the Plus reagent/Optimem premix was added to all DNA samples followed by the Lipofectamine LTX/Optimem premix. The transfection mix was incubated for 5 min at room temperature and then carefully dropped on the cells. Generally, no media change was carried out. Cells were analysed two days following transfection.
(§1) For flow cytometry, cells were detached, pelleted and resuspended in an appropriate volume of flow cytometry buffer (1% BSA in PBS, v/v). Cells were stained with Draq7 (Abcam, ab109202, f.c. 0.1 μM) as a live/dead stain and analysed using the BD LSRFortessa cell analyser (4 lasers, BD Bioscience).

GSC328 cells = experiment: Flow cytometry of mNGreen reporter in GSC328; assay type: cell-based, human
Procedure: Cells were seeded at the required density. The following day the transfection was carried out. For this the Plus reagent and Lipofectamine LTX (Life Technologies, 15338030) were each diluted in half the volume of Opti-MEM I Reduced-Serum Medium (further referred to as Optimem) (Life Technologies, 31985062). Following this step, the Plus reagent/Optimem premix was added to all DNA samples followed by the Lipofectamine LTX/Optimem premix. The transfection mix was incubated for 5 min at room temperature and then carefully dropped on the cells. Generally, no media change was carried out. Cells were analysed two days following transfection.
as §1, with “Bioscience). Analysis of flow cytometry data was carried out in the FlowJo Analysis software (FlowJo, version 10.6.2).” for “Bioscience).”

SOX9 = biological target: T1, SOX9; experiment: Biotinylated enhancer pull down from nuclear extract, SOX9 detection; assay type: binding; conditions: random DNA 599 as negative control
Procedure: The oligo was PCR-amplified using biotinylated primers. The PCR product was then SPRI purified to remove biotinylated primer dimers. These dsDNA fragments were incubated with nuclear extract from GSC7 and GSC328. They were then bound to streptavidin magnetic beads, washed three times and the frozen beads were sent for mass spectrometry analysis.
All the buffers were prepared the day before, passed through a 22 μm filter (except the dialysis buffer) and left at 4° C. overnight. DTT and protease inhibitors were added just before use. […] The cell suspension was transferred to a glass Dounce homogenizer and dounced 40 times on ice. […] Dialysis buffer was changed (500 ml) and the dialysis was continued overnight at 4° C. The extract was collected in an 1.5 ml tube and spun at maximum speed for 15 min at 4° C. […] 100 μg aliquots were flash frozen in liquid nitrogen and stored at −80° C.
Enhancers were amplified with 5′ biotinylated primers (Table 5) using PrimeStar Max (Takara) according to the manufacturer's instructions.
Streptavidin Magnetic Bead (NEB, S1420S) were used according to the manufacturer's instructions. […]
Next, we aimed to confirm that indeed SOX2 and SOX9 are binding to the enhancer and the SOX dimer motif. […] To filter for transcription factors a list of all transcription factors was obtained from UniProt and overlapped with the detected proteins in both cell lines.

Molecule	activity compared with CMV, Nanoglo DLR assay (GSC7 cells [2])	expression level compared with positive control CMV, flow cytometry (GSC7 cells [3])	fluorescence intensity compared with CMV (GSC7 cells [3])	further results
Nc1nc(O)c2ncn(COC(CO)CO)c2n1 [ganciclovir]	–	–	–	viability at 200 μM (in vitro): 89%; cell confluence (GSC7 cells [1]): No significant negative effect on cell confluence
B1	higher than CMV	higher than CMV	higher intensity than CMV	–
B2	higher than CMV	higher than CMV	–	–
B3	–	–	–	mean fluorescence intensity (MFI) compared with CMV (GSC328 cells): clearly less intense than CMV
B4	–	–	–	Fold change (Median) (GSC7 cells [2]; expression fold change of the individual enhancer compared to mCMV): 251.6 fold; SOX9 interaction (SOX9): selectively interacts
B5	higher than CMV	higher than CMV	higher intensity than CMV	–
B6	higher than CMV	higher than CMV	higher intensity than CMV	–
